Assay results published in article PMC1925066, “Optical biosensor differentiates signaling of endogenous PAR1 and PAR2 in A431 cells” (BMC Cell Biology, 2007).

Columns and labels:
[1] = system: endogenous PAR1 and PAR2 in A431 cells; test: MRCAT resonant waveguide grating biosensor DMR assay in quiescent A431 cells; format: cell-based, human; details: for EC50: A431 cells
Description: (§1) Human epidermoid carcinoma A431 cells ([…]) were grown in Dulbecco's modified Eagle's medium (DMEM) supplemented with 10% fetal bovine serum (FBS), 4.5 g/liter glucose, 2 mM glutamine, and antibiotics. ~5 × 10^4 cells at passage 3 to 8 suspended in 200 μl the DMEM medium containing 10% FBS were placed in each well of a 96well microplate, and were cultured at 37°C under air/5% CO2 for ~2 days, followed by ~20 hr starvation through continuously culturing in the serum-free DMEM.
Corning® Epic™ angular interrogation system with transverse magnetic or p-polarized TM0 mode was used for all studies. The detailed instrumental setup and assay protocols had been previously described. Briefly, all compound solutions were prepared using 1 × HBSS containing minimal amount of dimethyl sulfoxide, while the starved cells were washed and maintained with 100 μl the serum-free DMEM. The cells were then treated with 50 μl 1 × HBSS buffered solution in the absence and presence of a compound, followed by stimulation with ligand solutions. The cellular responses were monitored in real time throughout the assays.
(§2) Unless specifically mentioned, three replicates were carried out for each measurement or each compound. The standard deviation was derived from these measurements (n = 3). […] All dose-dependent responses were analyzed using non-linear regression method with the Prism software (Graph Pad).

[2] = system: endogenous PAR1 and PAR2 in A431 cells; test: Fluo-3 Ca2+ mobilization (Ca2+ flux) assay in quiescent A431 cells; format: cell-based, human
Description: as §1
Cells were grown in Costar™ 96well clear cell culture microplates. After starvation, the cells were washed with 1× HBSS (1× regular Hank's balanced salt solution, 20 mM HEPES buffer, pH 7.0) in the presence of 2.5 mM probenicid, and labeled in the same buffer containing 4 μM Fluo-3 for 1 hour at room temperature. The cells were then washed twice with buffer, maintained with 100 μl 1× HBSS containing 2.5 mM probenicid. The assay was initiated by transferring 50 μl PAR agonist solution to the cell plate, and calcium signal was recorded over 6 minutes with a 6 sec interval using HTS7000 BioAssay Reader (PerkinElmer Life Science, Boston, MA). The fluorescent intensity before stimulation was recorded and used as a baseline. The percentage increase in fluorescence intensity after stimulation, relative to the baseline fluorescence, was analyzed and used directly as a measure for the increase of intracellular Ca^2+ level induced by PAR agonists.
as §2

A431 cells = system: A431 cells; set-up: method as in PMID 16766609; details: doses greater than ~1000 nM; cited from earlier work

B1: Trypsin: serine protease, PAR2 agonist, purchased from Sigma (protein, UniProt P00760 24-246, looked up)
Serine protease 1: IVGGYTCGANTVPYQVSLNSGYHFCGGSLINSQWVVSAAHCYKSGIQVRLGEDNINVVEGNEQFISASKSIVHPSYNSNTLNNDIMLIKLKSAASLNSRVASISLPTSCASAGTQCLISGWGNTKSSGTSYPDVLKCLKAPILSDSSCKSAYPGQITSNMFCAGYLEGGKDSCQGDSGGPVVCSGKLQGIVSWGSGCAQKNKPGVYTKVCNYVSWIKQTIASN
EC50 ([1]; amplitude of N-DMR event, read-out: EC50 (n = 3) N-DMR): 102 ± 21.9 nM
EC50 ([1]; amplitude of P-DMR event, read-out: EC50 (n = 3) P-DMR): 98 ± 27.8 nM
desensitization of trypsin-treated cells (DMR signal) ([1]; trypsin 200 nM first, repeated stimulation separated by ~1 hr): completely desensitized
maximal [Ca^2+]i elevation ([2]; A431 cells, SFLLR-amide at 80 μM): 100 ± 6%
EC50 ([2]; A431 cells, read-out: EC50 (n = 3) Ca^2+ flux assay): 45.7 ± 5.8 nM
responsiveness (Ca^2+ mobilization) after pre-stimulation with thrombin ([2]; thrombin 40 unit/ml first, separated by 6 min): only partially
Ca^2+ mobilization response after pre-stimulation with trypsin ([2]; trypsin 200 nM first, repeated stimulation separated by 6 min): completely blocked
cell detachment (A431 cells): significant cell detachment
